# Measured values reported in patent US20210198647.
# Legend:
# [1] = system: NlnA#1, NSC 374121, L-histidyl-L-tyrosine
# [2] = system: NlnA#2, NSC 523374, D,L-histidyl-D,L-histidine
Substance,"Emax, QFS (25 µM) hydrolysis [1]","Emax, QFS (25 µM) hydrolysis [2]"
"recombinant human neurolysin (R & D systems, product number 3814-ZN)",203.5% (95% confidence intervals 193.7 to 213.4%),214.3% (95% confidence intervals 205.7 to 222.9%)
mouse brain-purified neurolysin,190% (95% confidence intervals 169.2 to 210.7%),258% (95% confidence intervals 232.7 to 283.8%)
